Source: PMC3901395, “Multivalent interactions of the SUMO-interaction motifs in RING finger protein 4 determine the specificity for chains of the SUMO” (Biochemical Journal, 2013)

Legend:
[1] = biological target: 3xSUMO2ΔN11 (tri-SUMO2); test: ITC binding to linear tri-SUMO2 (3xSUMO2ΔN11)
Text: (§1) For expression in Escherichia coli, linear poly-SUMO chains were generated as described previously with slight modifications. After the combined PCR/ligation reaction, the 4×SUMO2-ΔN11 or 4×SUMO1-ΔN15 DNA polymers were separated from smaller polymers by agarose gel electrophoresis and individually extracted (Macherey–Nagel). These were then subjected to a second PCR with primers to create BamHI and XhoI restriction sites, a C-terminal GG motif and a stop codon. The resulting fragments coding for di-, tri- and tetra-SUMO2-ΔN11 or SUMO1-ΔN15 chains were amplified and cloned into pGEX-4T2. […] Each monomer in these chains is separated by RS replacing the natural GG motif. A similar strategy was used to design C-terminally GFP–HA2-tagged linear poly-SUMOs in the copper-inducible Ycplac22 vector for expression in S. cerevisiae. […]
(§2) The mono-SUMOs and linear poly-SUMO1 and poly-SUMO2 proteins as well as all RNF4 constructs were expressed as GST-fusion proteins from E. coli Rosetta™ 2(DE3)pLysS cells (Novagen) cultivated in LB medium with 100 μg/ml ampicillin and 30 μg/ml chloramphenicol after induction with 0.1 mM IPTG at 20°C for 12 h. […]
(§3) Binding of peptides and proteins to SUMOs was investigated by ITC using either a VP-ITC or an ITC200 (GE Healthcare). […] Protein concentrations were determined by measuring the absorption at 280 nm. […]

[2] = biological target: T1, 2xSUMO2ΔN11 (di-SUMO2) (Homo sapiens, UniProt P61956); test: ITC binding to linear di-SUMO2 (2xSUMO2ΔN11); conditions: 50 mM Tris/HCl pH 7.5, 150 mM NaCl, 2 mM DTT, 5% glycerol, 25°C, averaged from two to six titrations, read-out: Dissociation constant (KD), 2xSUMO2ΔN11 (linear di-SUMO2)
T1 construct: Each monomer in these chains is separated by RS replacing the natural GG motif; a C-terminal GG motif and a stop codon; GST (N, cleaved yes); made in house; host or cells: E. coli Rosetta 2(DE3)pLysS
Text: as §1, §2, §3

[3] = biological target: 4xSUMO1ΔN15 (tetra-SUMO1); test: ITC binding to linear tetra-SUMO1 (4xSUMO1ΔN15); conditions: 50 mM Tris/HCl pH 7.5, 150 mM NaCl, 2 mM DTT, 5% glycerol, 25°C, averaged from two to six titrations, read-out: Dissociation constant (KD), 4xSUMO1ΔN15 (tetra-SUMO1)
Text: as §1, §2, §3

[4] = biological target: 4xSUMO2ΔN11 (tetra-SUMO2); test: ITC binding to linear tetra-SUMO2 (4xSUMO2ΔN11); conditions: 50 mM Tris/HCl pH 7.5, 150 mM NaCl, 2 mM DTT, 5% glycerol, 25°C, averaged from two to six titrations, read-out: Dissociation constant (KD), 4xSUMO2ΔN11 (tetra-SUMO2)
Text: as §1, §2, §3

[5] = biological target: 2xSUMO1ΔN15 (di-SUMO1); test: ITC binding to linear di-SUMO1 (2xSUMO1ΔN15); conditions: 50 mM Tris/HCl pH 7.5, 150 mM NaCl, 2 mM DTT, 5% glycerol, 25°C, averaged from two to six titrations, read-out: Dissociation constant (KD), 2xSUMO1ΔN15 (linear di-SUMO1)
Text: as §1, §2, §3

[6] = biological target: native 2xSUMO2 ('native' Lys^11-linked di-SUMO2 chains); test: ITC binding to native Lys^11-linked di-SUMO2; conditions: 50 mM Tris/HCl pH 7.5, 150 mM NaCl, 2 mM DTT, 5% glycerol, 25°C, averaged from two to six titrations, chains produced by in vitro SUMOylation, read-out: Dissociation constant (KD), native Lys^11-linked di-SUMO2
Protocol: The mono-SUMOs and linear poly-SUMO1 and poly-SUMO2 proteins as well as all RNF4 constructs were expressed as GST-fusion proteins from E. coli Rosetta™ 2(DE3)pLysS cells (Novagen) cultivated in LB medium with 100 μg/ml ampicillin and 30 μg/ml chloramphenicol after induction with 0.1 mM IPTG at 20°C for 12 h. Cells were lysed by sonication in GST-buffer I (50 mM Tris/HCl, pH 7.5, 150 mM NaCl and 2 mM DTT) in the presence of protease inhibitors (1 μg/ml aprotinin, 1 μg/ml leupeptin, 1 μg/ml pepstatin, 200 μM pefabloc and 100 μM PMSF). For tetra-SUMOs and RNF4 variants, 1.5% sarkosyl, 0.1% Triton X-100 and 5% glycerol were added. The proteins were affinity purified using glutathione beads (Protino® Glutathione Agarose 4B, Macherey–Nagel) and eluted by thrombin cleavage. The supernatant was subjected to anion exchange chromatography and further purified by SEC (size-exclusion chromatography) into ITC buffer (50 mM Tris/HCl, pH 7.5, 150 mM NaCl, 2 mM DTT and 5% glycerol) or in crystallization buffer (20 mM Tris/HCl, pH 7.5, and 100 mM NaCl). Native SUMO2 chains were produced by in vitro SUMOylation as described recently and subsequently purified by affinity chromatography and SEC.
as §3

[7] = test system: mono-SUMOs and SUMO chains; test: ITC binding to mono-SUMOs and SUMO chains (general statements); conditions: mono-SUMO1 and mono-SUMO2
Text: as §1, §2, §3

T1 sequence (P61956 with tags, fused parts or gaps): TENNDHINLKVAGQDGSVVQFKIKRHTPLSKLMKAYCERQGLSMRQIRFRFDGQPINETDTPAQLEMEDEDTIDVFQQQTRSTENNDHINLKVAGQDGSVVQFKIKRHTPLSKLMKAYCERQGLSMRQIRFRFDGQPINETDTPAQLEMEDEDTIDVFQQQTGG

Kd ([1]; 50 mM Tris/HCl pH 7.5, 150 mM NaCl, 2 mM DTT, 5% glycerol, 25°C, averaged from two to six titrations, read-out: Dissociation constant (KD), 3xSUMO2ΔN11 (tri-SUMO2)): 19 µM
Kd [2]: 14 µM
Kd [3]: 4.3 µM
Kd [4]: 1.6 µM
Kd [5]: 17 µM
Kd [6]: 11 µM
affinity for mono-SUMOs [7]: very weak
B1: SIM domain: construct comprising the entire N-terminal part of RNF4 upstream of the RING domain (N-terminal 1–125 amino acids) (protein)
chain: MSTRKRRGGAINSRQAQKRTREATSTPEISLEAEPIELVETAGDEIVDLTCESLEPVVVDLTHNDSVVIVDERRRPRRNARRLPQDHADSCVVSSDDEELSRDRDVYVTTHTPRNARDEGATGLR
modifications: left off: GST, end not stated, cleaved
affinity for tri-SUMO compared with di-SUMO ([1]; tri-SUMO2): did not result in an increase in affinity
